For orientation: Kd means the concentration at which binding is half-saturated.

In this assay the target is H5N1 influenza hemagglutinin (HA) of A/Vietnam/1203/2004, native (wild type) (Influenza A virus A/Vietnam/1203/2004 …, biotin on the AviTag (expressed in the presence of BirA)). In words: BLI. (Biolayer interferometry detects binding as a change in optical thickness at a sensor tip.)

B1: CR6261 (broadly neutralizing antibody targeting the stem region of HA), IgG (antibody, V domains shown)
VH: EVQLVESGAEVKKPGSSVKVSCKASGGPFRSYAISWVRQAPGQGPEWMGGIIPIFGTTKYAPKFQGRVTITADDFAGTVYMELSSLRSEDTAMYYCAKHMGYQVRETMDVWGKGTTVTVSS
VL: QSVLTQPPSVSAAPGQKVTISCSGSSSNIGNDYVSWYQQLPGTAPKLLIYDNNKRPSGIPDRFSGSKSGTSATLGITGLQTGDEANYYCATWDRRPTAYVVFGGGTKLTVL
As for B1, the dissociation constant (Kd) was 0.46 nM.

B2: 13D4 (broadly neutralizing antibody targeting the head region of HA), IgG (antibody, V domains shown)
VH: QVQLQQSGAELMKPGASVKISCKATGYTFSGHWIEWVKQRPGHGLEWIGEILPGSGNIHYNEKFKGKATFAADTSSNTAYMQLSSLTSEDSAVYYCARLGTTAVERDWYFDVWGAGTTVTVSL
VL: DIVMTQSQKFMSASVGDRVSVTCKASQNVGTHLAWYQQKPGQSPKALIYSASYRYSGVPDRFTGSGSGTDFTLTISNVQSGDLADYFCQQYNNFPLTFGAGTKLEIK
In the case of B2, the Kd was found to be 0.64 nM.
